Reference: article PMC3143072, “DNA binding activities of the Herves transposase from the mosquito Anopheles gambiae”

Experiments:
[1] = molecular target: T1, Herves transposase (Anopheles gambiae, UniProt Q5QIT5 1-603); assay: EMSA; three complexes; competed by unlabeled bp 1-100; EMSA: 16 mM Tris pH 8.0, 150 mM NaCl, 1 mM DTT, 0.25% Triton X, 0.2 ug BSA, 0.4 ug T3 ss oligo, 0.5 ug poly(dI-dC), 4 C; 100 nM DNA, 850 nM transposase; same binding conditions for DNase I; conditions: protein: recombinant; tags: His tag (pBAD myc/HisA vector); label: 32P
T1 sequence: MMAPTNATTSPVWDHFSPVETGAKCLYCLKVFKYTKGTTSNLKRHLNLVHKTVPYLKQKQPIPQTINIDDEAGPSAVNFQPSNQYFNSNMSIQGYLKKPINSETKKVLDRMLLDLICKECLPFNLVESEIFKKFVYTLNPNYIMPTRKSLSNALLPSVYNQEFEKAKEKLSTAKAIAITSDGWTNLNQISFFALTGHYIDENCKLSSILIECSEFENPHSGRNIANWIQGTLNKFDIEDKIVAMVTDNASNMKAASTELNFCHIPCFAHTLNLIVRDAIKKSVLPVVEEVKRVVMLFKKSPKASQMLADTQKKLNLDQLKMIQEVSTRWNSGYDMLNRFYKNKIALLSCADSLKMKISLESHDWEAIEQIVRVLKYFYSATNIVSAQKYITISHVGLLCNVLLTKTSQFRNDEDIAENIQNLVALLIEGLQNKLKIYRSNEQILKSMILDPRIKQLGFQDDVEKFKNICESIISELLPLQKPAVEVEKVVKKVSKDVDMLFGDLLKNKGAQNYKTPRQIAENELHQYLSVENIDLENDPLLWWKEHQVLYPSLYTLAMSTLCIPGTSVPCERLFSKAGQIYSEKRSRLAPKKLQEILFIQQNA

[2] = molecular target: T1, Herves transposase; assay: EMSA; two complexes; competed by self; EMSA: 16 mM Tris pH 8.0, 150 mM NaCl, 1 mM DTT, 0.25% Triton X, 0.2 ug BSA, 0.4 ug T3 ss oligo, 0.5 ug poly(dI-dC), 4 C; 100 nM DNA, 850 nM transposase; same binding conditions for DNase I; conditions: protein: recombinant; tags: His tag (pBAD myc/HisA vector); label: 32P
[3] = molecular target: T1, Herves transposase; assay: EMSA; two complexes; EMSA: 16 mM Tris pH 8.0, 150 mM NaCl, 1 mM DTT, 0.25% Triton X, 0.2 ug BSA, 0.4 ug T3 ss oligo, 0.5 ug poly(dI-dC), 4 C; 100 nM DNA, 850 nM transposase; same binding conditions for DNase I; conditions: protein: recombinant; tags: His tag (pBAD myc/HisA vector); label: 32P as probe
[4] = molecular target: T1, Herves transposase; assay: EMSA; one complex; EMSA: 16 mM Tris pH 8.0, 150 mM NaCl, 1 mM DTT, 0.25% Triton X, 0.2 ug BSA, 0.4 ug T3 ss oligo, 0.5 ug poly(dI-dC), 4 C; 100 nM DNA, 850 nM transposase; same binding conditions for DNase I; conditions: protein: recombinant; tags: His tag (pBAD myc/HisA vector); label: 32P as probe
[5] = molecular target: T1, Herves transposase; assay: EMSA; EMSA: 16 mM Tris pH 8.0, 150 mM NaCl, 1 mM DTT, 0.25% Triton X, 0.2 ug BSA, 0.4 ug T3 ss oligo, 0.5 ug poly(dI-dC), 4 C; 100 nM DNA, 850 nM transposase; same binding conditions for DNase I; conditions: protein: recombinant; tags: His tag (pBAD myc/HisA vector); label: 32P as probe
[6] = molecular target: T1, Herves transposase; assay: competition; vs Herves-L 1-100 probe, partial compared with bp 1-100; 200-fold; EMSA: 16 mM Tris pH 8.0, 150 mM NaCl, 1 mM DTT, 0.25% Triton X, 0.2 ug BSA, 0.4 ug T3 ss oligo, 0.5 ug poly(dI-dC), 4 C; 100 nM DNA, 850 nM transposase; same binding conditions for DNase I; conditions: protein: recombinant; tags: His tag (pBAD myc/HisA vector); label: 32P as probe
[7] = molecular target: T1, Herves transposase; assay: competition; vs Herves-L 1-100 probe; 200-fold; EMSA: 16 mM Tris pH 8.0, 150 mM NaCl, 1 mM DTT, 0.25% Triton X, 0.2 ug BSA, 0.4 ug T3 ss oligo, 0.5 ug poly(dI-dC), 4 C; 100 nM DNA, 850 nM transposase; same binding conditions for DNase I; conditions: protein: recombinant; tags: His tag (pBAD myc/HisA vector)

B1: Herves-L bp 1-100 (dsDNA)
DNA 1: TAGAGTTGTGCCTCAAGAACCAGAACTGTACGATTCATTCAATTCATCCTAAAGAACGAATGACCTACGTTCATCTAATCAACGTTCATCGATTCTTTAT
DNA 2: ATAAAGAATCGATGAACGTTGATTAGATGAACGTAGGTCATTCGTTCTTTAGGATGAATTGAATGAATCGTACAGTTCTGGTTCTTGAGGCACAACTCTA
binding result [1]: binds

B2: Herves-R bp 1-100 (dsDNA)
DNA 1: TTGACGTGAACGATTGAATCGCGATTCACGCTCAGTTCATGTTAATGAAAGAACCGGTAAATTCACGTTCATGGTAATGAATCGAATTGCCCAACCCTA
DNA 2: TAGGGTTGGGCAATTCGATTCATTACCATGAACGTGAATTTACCGGTTCTTTCATTAACATGAACTGAGCGTGAATCGCGATTCAATCGTTCACGTCAA
binding result [2]: binds

B3: Herves-R bp 1-30 (dsDNA)
DNA 1: TAGGGTTGGGCAATTCGATTCATTACCATG
DNA 2: CATGGTAATGAATCGAATTGCCCAACCCTA
binding result [3]: binds

B4: Herves-R bp 15-45 (dsDNA)
DNA 1: TCGATTCATTACCATGAACGTGAATTTACCG
DNA 2: CGGTAAATTCACGTTCATGGTAATGAATCGA
binding result [4]: binds

B5: Herves-R bp 61-90 (dsDNA)
DNA 1: TGAACTGAGCGTGAATCGCGATTCAATCGT
DNA 2: ACGATTGAATCGCGATTCACGCTCAGTTCA
binding result [4]: binds

B6: Herves-L bp 12-48 (dsDNA)
DNA 1: CTCAAGAACCAGAACTGTACGATTCATTCAATTCATC
DNA 2: GATGAATTGAATGAATCGTACAGTTCTGGTTCTTGAG
binding result [3]: binds

B7: Herves-R bp 46-75 (dsDNA)
DNA 1: GTTCTTTCATTAACATGAACTGAGCGTGAA
DNA 2: TTCACGCTCAGTTCATGTTAATGAAAGAAC
binding result [5]: no binding

B8: (CGATTCAT)4 (dsDNA)
DNA 1: CGATTCATCGATTCATCGATTCATCGATTCAT
DNA 2: ATGAATCGATGAATCGATGAATCGATGAATCG
binding result [3]: binds

B9: Herves-L bp 28-60 (dsDNA)
DNA 1: GTACGATTCATTCAATTCATCCTAAAGAACGAA
DNA 2: TTCGTTCTTTAGGATGAATTGAATGAATCGTAC
binding result [6]: binds

B10: Herves-L bp 1-30 (dsDNA)
DNA 1: TAGAGTTGTGCCTCAAGAACCAGAACTGTA
DNA 2: TACAGTTCTGGTTCTTGAGGCACAACTCTA
binding result [7]: no binding
